Source: US20200247886A1 (ZLIP, published 2020)
Numbering of substitutions follows the chain as printed. Values belong to the binder of their own block, whether it stands above or below them.

Legend:
[1] = molecular target: T1, human CD47 expressed on cells (CD47 expressing CHO cells, Jurkat, HL60, DLD1, Raji) (human, UniProt Q08722 19-292); assay: IC50 (nM) MFI as grade, blocking biotinylated SIRPa-Fc binding to DLD1 cells; legend +++: <1 nM
T1 construct: also called CHO-CD47; IAP

[2] = molecular target: T1, human CD47 expressed on cells (CD47 …); assay: flow cytometry on DLD1 cells, IgG, frequency
[3] = molecular target: T1, human CD47 expressed on cells (CD47 …); assay: flow cytometry blocking assay: 100 nM biotinylated SIRPa-Fc (blocked ligand) on DLD1 cells expressing CD47, frequency
[4] = molecular target: T1, human CD47 expressed on cells (CD47 …); assay: flow cytometry blocking assay: 100 nM biotinylated SIRPa-Fc (blocked ligand) on DLD1 cells expressing CD47, MFI
[5] = molecular target: T1, human CD47 expressed on cells (CD47 …); assay: IC50 (nM) Frequency as grade, blocking biotinylated SIRPa-Fc binding to DLD1 cells; legend +++: <1 nM
[6] = molecular target: T1, human CD47 expressed on cells (CD47 …); assay: flow cytometry on DLD1 cells, IgG, MFI
[7] = molecular target: T1, human CD47 expressed on cells (CD47 …); assay: flow cytometry on human red blood cells, donor 2, MFI; EC50 (nM) table beside the legend
[8] = molecular target: T1, human CD47 expressed on cells (CD47 …); assay: EC50 (nM) as grade, binding on Jurkat cells; legend +++: >0.05 nM and <1 nM
[9] = molecular target: T2, CD47 protein (construct not stated; SPR antigen, CD47 coated ELISA plates) (Homo sapiens (Human), UniProt Q08722 19-139, limits assumed); assay: SPR (Biacore T100), affinity (nM) as grade; legend +: >10 nM and <40 nM
T2 construct: also called the antigen

[10] = molecular target: T3, CHO/mCD47-GFP (mouse, UniProt Q61735); assay: flow cytometry on CHO cells expressing mouse CD47-GFP, binding percentage
T3 construct: on the cell surface; also called mouse CD47 expressed on CHO cells; CHO cell expressing mouse CD47
T3 sequence (receptor, looked up): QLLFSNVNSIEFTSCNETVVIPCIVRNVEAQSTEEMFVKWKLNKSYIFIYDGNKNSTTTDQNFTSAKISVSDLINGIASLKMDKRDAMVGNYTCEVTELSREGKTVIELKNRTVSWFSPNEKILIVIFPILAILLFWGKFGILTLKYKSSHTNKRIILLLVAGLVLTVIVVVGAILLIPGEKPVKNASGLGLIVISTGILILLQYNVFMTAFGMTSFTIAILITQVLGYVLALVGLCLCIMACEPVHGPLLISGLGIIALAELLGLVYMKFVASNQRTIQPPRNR

[11] = molecular target: T1, human CD47 expressed on cells (CD47 …); assay: EC50 (nM) as grade, binding on CHO-CD47 cells; legend +++: >0.05 nM and <1 nM
[12] = molecular target: T4, human CD47-Fc protein (Novoprotein, Cat#CG18) (human, UniProt Q08722 19-139); assay: IC50 (nM) as grade, neutralizing ELISA, CD47-hFc on SIRPα coated plate; legend ++++: <8 nM
T4 construct: Bought protein; also called CD47-hFc; hCD47-hFc fusion protein; not shown: human IgG Fc of the bought fusion protein

[13] = molecular target: T4, human CD47-Fc protein (Novoprotein, …); assay: IC50 (nM) as grade, blocking of soluble CD47 binding to SIRPα-expressing CHO cells; legend ++: >1 nM and <10 nM
[14] = molecular target: T1, human CD47 expressed on cells (CD47 …); assay: flow cytometry on CD47 expressing CHO cells, MFI (FL-4)
[15] = molecular target: T5, biotin labelled polyhistidine tagged CD47 protein (Novoprotein, Cat#321) (human, UniProt Q08722 19-139, biotin labelled (site not stated)); assay: flow cytometry blocking assay: antibody mixed with biotinylated human CD47 protein; blocked ligand SIRPα on cells; binding percentage
T5 construct: Bought protein; also called biotinylated CD47; biotinylated human CD47 protein; not shown: polyhistidine tag

[16] = molecular target: T2, CD47 protein (construct not stated; SPR …); assay: ELISA on CD47, OD450 against Log[M]; column headed KD beside the legend
[17] = molecular target: T1, human CD47 expressed on cells (CD47 …); assay: flow cytometry blocking assay on Raji cells, SIRPα is the blocked ligand, MFI
[18] = molecular target: T1, human CD47 expressed on cells (CD47 …); assay: IC50 as grade, SIRPα blocking on Raji cells (second part of the table); legend +++: <1 nM
[19] = molecular target: T1, human CD47 expressed on cells (CD47 …); assay: flow cytometry on human red blood cells, donor 1, MFI
[20] = molecular target: T1, human CD47 expressed on cells (CD47 …); assay: flow cytometry on human platelets, donor 2, MFI
[21] = molecular target: T1, human CD47 expressed on cells (CD47 …); assay: flow cytometry on human platelets, donor 1, MFI
[22] = molecular target: T1, human CD47 expressed on cells (CD47 …); assay: flow cytometry on human red blood cells, donor 2, MFI
[23] = molecular target: T1, human CD47 expressed on cells (CD47 …); assay: IC50 as grade, SIRPα blocking on Raji cells; legend +++: <1 nM
[24] = molecular target: T1, human CD47 expressed on cells (CD47 …); assay: flow cytometry blocking assay on Raji cells, SIRPα is the blocked ligand, MFI; remark: listed apart in the source

IC50 [1]: < 1 nM | EC50 (read off the curve) [2]: ~0.05 nM | IC50 (read off the curve) [3]: ~0.8 nM | IC50 (read off the curve) [4]: ~0.3 nM | IC50 [5]: < 1 nM | EC50 (read off the curve) [6]: ~0.4 nM
B1: ABU14 (IgG, chimeric version of the Fab) (antibody, V domains shown)
VH: EVQLQQSGPELVKPGASVKISCKASGYSFTNYHIHWVKQRPGQGLEWIGWIYPGSGNTKYNEKFKGMAILTADTSSSTAYMQLSSLTSEDSAVYYCARYDYDLYLHSWGQGTTVTVSS
VL: DIQINQSPSSLSASLGDTITITCHASQNINVWLSWYQQKPGNIPKLLIYKASNLHTGVPSRFSGSGSGTGFTLTISSLQPEDIATYYCQQGQSYPLTFGAGTKLEIK

IC50 [1]: < 1 nM | EC50 (read off the curve) [2]: ~0.05 nM | IC50 (read off the curve) [3]: ~0.8 nM | IC50 (read off the curve) [4]: ~0.3 nM | IC50 [5]: < 1 nM | EC50 (read off the curve) [6]: ~0.4 nM
B2: ABU9 (IgG, chimeric version of the Fab) (antibody, V domains shown)
VH: EVQLQQSGPELVKPGASVKLSCKASGFTFTNYYIHWVKQRPGQGPEWIGWIYLGSGNTKYNEKFKGKATLTADTSSSTAYLQLSTLISEDSAVYYCARYDYDLYLDSWGQGTTVTVSS
VL: B1 VL with Q3K, I4M, I106L

EC50 [7]: 0.25 nM | EC50 [8]: 0.05 to 1 nM | Affinity by SPR [9]: 10 to 40 nM | binding result [10]: no binding (tested: about 0.4 ug/ml) | EC50 [11]: 0.05 to 1 nM | IC50 [12]: < 8 nM | IC50 [13]: 1 to 10 nM
B3: ABU2 (antibody, V domains shown)
VH: QVQLQQPGAELVRPGASVKLSCKASGYTFTNYWMNWFKQRPEQGLEWIGRIDPYDSETLYNQKFKDKAILTVDKSSSTAYMQLSSLTSEDSAVYYCAGGGKGGFGYWGQGTLVTVSA
VL: DVLMTQTPLSLPVSLGDQASISCRSSQSIVYSNGNTYLEWYLQKPGQSPKLLIYKVSNRFSGVPDRFSGSGSGTDFTLKISRVEAEDLGVYYCFQGSHVPYTFGGGTKLEIK
notes: Murine hybridoma monoclonal antibody

EC50 (read off the curve) [14]: ~1 nM | IC50 (read off the curve) [15]: ~3 nM
B4: C-ABU2 (antibody, V domains shown)
VH: B3 VH
VL: B3 VL

EC50 [8]: 0.05 to 1 nM | Affinity by SPR [9]: 10 to 40 nM | binding result [10]: no binding (tested: about 0.4 ug/ml) | EC50 [11]: 0.05 to 1 nM | IC50 [12]: < 8 nM | IC50 [13]: 1 to 10 nM
B5: Positive 1 (commercial anti-CD47 blocking antibody, eBioscience Cat#14-0479) (antibody, V domains shown)
VH: EVQLVESGGDLVKPGGSLKLSCAASGFTFSGYGMSWVRQTPDKRLEWVATITSGGTYTYYPDSVKGRFTISRDNAKNTLYLQIDSLKSEDTAIYFCARSLAGNAMDYWGQGTSVTVSS
VL: DIVMTQSPATLSVTPGDRVSLSCRASQTISDYLHWYQQKSHESPRLLIKFASQSISGIPSRFSGSGSGSDFTLSINSVEPEDVGVYYCQNGHGFPRTFGGGTKLEIK
notes: also called Pos; B6H12

Kd [16]: 1.3 nM
B6: H-ABU2b (antibody, V domains shown)
VH: QVQLVQSGAEVKKPGASVKVSCKASGYTFTDFYINWVRQAPGQRLEWMGWIYLGSGNTKYNEKFKGRVTITVDTSASTAYMELSSLRSEDTAVYYCARREERGFAYWGQGTLVTVSS
VL: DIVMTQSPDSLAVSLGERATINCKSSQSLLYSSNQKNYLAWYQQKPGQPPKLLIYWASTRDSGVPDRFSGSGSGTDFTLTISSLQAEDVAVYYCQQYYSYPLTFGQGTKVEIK

IC50 (read off the curve) [17]: ~0.2 nM | IC50 [18]: < 1 nM
B7: H-ABU 8 (antibody, V domains shown)
VH: B6 VH with F32N, I51V, V72R
VL: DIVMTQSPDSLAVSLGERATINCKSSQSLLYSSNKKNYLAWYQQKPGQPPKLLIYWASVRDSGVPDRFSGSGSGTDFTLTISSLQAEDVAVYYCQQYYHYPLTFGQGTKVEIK

Kd [16]: 1.6 nM
B8: H-ABU2a (antibody, V domains shown)
VH: B6 VH with V72R
VL: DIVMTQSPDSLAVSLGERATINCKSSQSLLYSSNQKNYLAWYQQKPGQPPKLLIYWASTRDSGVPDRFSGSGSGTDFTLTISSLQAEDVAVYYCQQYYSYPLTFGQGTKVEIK

EC50 (read off the curve) [19]: ~1 nM | IC50 (read off the curve) [17]: ~0.8 nM | EC50 (read off the curve) [20]: ~0.9 nM | EC50 (read off the curve) [21]: ~1 nM | EC50 (read off the curve) [22]: ~1 nM | IC50 [18]: < 1 nM
B9: H-ABU 11 (antibody, V domains shown)
VH: B6 VH with V72R
VL: DIVMTQSPDSLAVSLGERATINCKSSQSLLSSSQKNYLAWYQQKPGQPPKLLIYWASTRDSGVPDRFSGSGSGTDFTLTISSLQAEDVAVYYCQQFYSYPLTFGQGTKVEIK

Kd [16]: 1.5 nM
B10: H-ABU2c (antibody, V domains shown)
VH: B6 VH with A24V
VL: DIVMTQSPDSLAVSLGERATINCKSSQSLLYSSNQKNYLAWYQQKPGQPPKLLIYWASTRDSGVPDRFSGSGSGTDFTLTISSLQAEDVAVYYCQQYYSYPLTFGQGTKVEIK

IC50 [23]: < 1 nM | EC50 (read off the curve) [19]: ~1 nM | EC50 (read off the curve) [20]: ~0.6 nM | EC50 (read off the curve) [22]: ~1 nM | IC50 (read off the curve) [24]: ~0.09 nM
B11: H-ABU 7 (antibody, V domains shown)
VH: B6 VH with F32H, V72R, E101D
VL: B9 VL with T58V, F96Y
